assay: soluble on expression in E. coli; label from the status in PepcDB or PDB records

Sequence | soluble on expression in E. coli
MKEKVVSLAQDLIRRPSISPNDEGCQQIIAERLEKLGFQIEWMPFNDTLNLWAKHGTSEPVIAFAGHTDVVPTGDENQWSSPPFSAEIIDGMLYGRGAADMKGSLAAMIVAAEEYVKANPNHKGTIALLITSDEEATAKDGTIHVVETLMARDEKITYCMVGEPSSAKNLGDVVKNGRRGSITGNLYIQGIQGHVAYPHLAENPIHKAALFLQELTTYQWDKGNEFFPPTSLQIANIHAGTGSNNVIPAELYIQFNLRYCTEVTDEIIKQKVAEMLEKHNLKYRIEWNLSGKPFLTKPGKLLDSITSAIEETIGITPKAETGGGTSDGRFIALMGAEVVEFGPLNSTIHKVNECVSVEDLGKCGEIYHKMLVNLLDS | soluble
MRVSKSKKPTEICPIVSAIAIIGSEPKLLTIRYLLDGPKRFNELQRLTSLSSKTLSKTLKELENHGIVERKIINSHPIVAVYELTDKGKDLKRVFDELRRWGEKFALTKIAVMNSIRVNQEF | soluble
MSLNQTDLSASSTSSTSRPLVAVTGADGFIGSHLTEDLVRAGYRVRAMAIYNSQGSYGWLDTVPGEVMEHVEVQLGDVRDAGSVRALMRDVQTVYHLAALIAIPYSYVAPRSYVETNITGTLNVLEAARDLGTGRVIHTSTSEVYGTARSVPIHESHPLQGQSPYSATKIGADKLAESYFLSFGLPVVTLRPFNTYGPRQSARAVIPTIISQLAAGRTEIKLGDLRPTRDFNYVADTARAFRAVGEAGPEVLGRTLNAGSGREISVGDTVKLIAQVMGKDVEVKQEDERLRPEGSEVMRLLADHRELQTLTGWQPQVTLEEGLKRTAEWFTDAGNLARYRVDQYTEGHHHHHH | soluble
MPETELHVIFDQPNEVFFPGQPISGRVVLSTTEEKYKARAVNIKILGLAHTSWTDYDSVRRVDNDGNVRYDSESVHYSSNVHYLDQALLLWACKDGSNELSAGDYVWPFSYTLPLNVPPSFEGKYGYLRYSVTAEVDRPWRLDKAKRRCITVSPLIDLNAIPLALTPIDDEESENLGCCFFRKGYLELRVNIPKTGFVPGETVPMNIHILNHSSVPVTEVKAKIIQQCKFIAYRNGTIFRFDGGSDTLMSGSSQQTKYDTKPVITQTQPMTVTPGNEHKFVLEFRLPSVTPTICRFSPVITVEYVVQVRVETTSTCGSAAKCEMPILIGTVPIRNYLPPPIPNNYPIGLPPPYANLTDVNVPCPSGGSGTAVIPSAPPPSYQESMYGVGGTELRAEENEKPFAPKYPVFNNLPIYNPTAPPSE | not soluble
MSEKPIDKVFNRILVGVDDSADAQLAFRYAVRRAVKDNATLIITSILENDEMNVYQALTKDYVHGERYELVEHLKKYRDIAAKAGVKDIKEIVDEGNAGETIVKNVIPAVKADLLIIGSLSKKGISKYFGSQAAYMAKYAPISVLIIR | not soluble
MVQLFSAFDRETIERNLQEEKFDLVIVGGGITGAGIALDATSRGMSVALVEMGDFASGTSSRSTKLVHGGLRYLQQFEIKEVADLGKERAIVYENGPHVTTPEWMMLPFHKGGNMGKTTASFGIRLYDYLAGVKKNERRKILSAKETLAKNPFVKKDGLKGSGYYVEYRTDDARLTIEVMKKAVELGANAINYTKAEHFLYDDKKQVVGVTVTDRLTGKAYDIKGHRVINAAGPWVDKVRKLDYATNNKHLRLTKGIHLVIDKQKFPMEQAVYFDTPDGRMVFAIPRDKKVYVGTTDTVYDEAVINPKALESDHNYVIKAINYMFPDVHISEKDIESSWAGVRPLIYEEGKDPSEISRKDEVWFSESGLITMAGGKLTGYRKMAEKLLDGVSKTLSKETGKKYKPVQTKHLPISGGDIGGSEQLEAFLSKKAKEGNNRFGWTLEEGREIAKRFGSNIDQLFTYAQEHKDQNETTLPNSLYAELRYSIQHEAVTTPIDFLLRRTGYLLFDMPYLLEWKDAVVDEMAKQFHWSDDVKQTYIEELNIQINDAREPADWHDRLEHHHHHH | soluble
MTMSTILFDDIRPYCDQEAPAVIERLLSSAEYRYVFGKMMPDVKPQEFEQMMLRCKSTGEFKHIFGYTAVKAVSEKTTFSLSLSGRSRIPDNGAYIFISNHRDIVLDSAFLNLLLAEIDYNMPQIAIGDNLLVKPWIEDFVRLNGSFIVRRGINMRELIAQSQRLSAYIRHTITQTKDSIWIAQREGRAKDADDRTQSSVLKMLAMSGEDGGIKSLLNLNIVPLSLSYEYDPCDYLKAREMLSKQRDPLYKKPVGEDLLNMQTGIFGYKGRVHFAIGTPLRELAESIPADAPHARQFTEAGKLIDAEIHRRYRLYPGNYVAWDLLDGCDHAGSHYSKEEKETFVNYLSAQIAKVEMQDKDEEELKRLILIMYANPARAYYAAQDPTNV | not soluble
MQSRWNDTEAETFAAEARARGEPAELGLRVYSSRLIGQDPDLVLHGGGNTSVKIPSPEGMLIHVKGSGWDLGDIEAPGLPAMHLAPLLETRDVPQMSDEEMVALLRAHLLDPAAPTPSVEALLHAYMPQAFVDHTHATAILALADQADMEPVVAELFGGRVGWVPYVMPGYALSHACREAFARDPSVEGLWLEQHGLFTFAETARESYERMIGFVTMAEEHLAARGVPLPGPEANDGTAPERLAADLRAALAARGALGADPSLDFRSSPSIRSYLGRADLPELARRGTATPDHVIRLKPFPMLLEPTAGPAEIEAALDAFEAEYRAYFDRNAPNASEAKIMLDPLPRVVLVPGLGGWGVGANGKAARIAGDLLEQTSRVVNAAETYRRFTPISEGDLFDMEYWSLEQAKLRKA | not soluble
MTFEDLHEYLDYLAKKNDLVTITEEVDPNLDLTYILSEEERMGRGRTILFKNVKGSQVPAVGNLFSTNEKLKAVLGDDPYSIGVKIADIVKPPRDSESFIGKGLEMMRELSGLRPKVSNSIPSGYSELEKVDLYRYPICKTWPDDGGPFITLPLVITKDPSTGIRNMGMYRMQVYDSETTGMHWHIHKGGSENFLKEKEKGKAMDVAVVIGSDPLTIFSAVAPLPNGIDEFMFRGLISRKRSELVKGKTVDLEYPRNFEIVLEGYIDPSETRVEGPFGDHTGYYSLEEEFPVFHVKNIIERNDRIYPTTIVGKLWHEDVVLGKAVERMFLPLIQMVLPEVVDINTMEEAVFHNMVIVSIKKRYPGHAKKVMFALWGLGQLMFSKIIVVVDDDINIHNRKELIWAMTTRIDPDRDVIIIPGTVTDSLDHAAPLFNYGSKMGIDATKKDKSEGYTRRWPDVLEMPKDVVDKVRQIMKNNRLIQLEHHHHHH | not soluble
ENKDNKGQIKTLDRDGQSITSYSFFAKNGDNVEKINVEVDQRQLSKDESLKLMENSRNKLVKLVLDKNKSANHIDKPLNLIREIPDTDISVTWDISDSRVLNYDGQIMSDVSQEGTIVNLTANMELNELTLSYTFAVNVFPRNYKGDIQEAVQEYINSQDSEQKKIFLPENISGEKISYYKSASK | soluble
MGSDKIHHHHHHMKTHIFLYPGEGIGPELFESLRAFFSLFNDKLEYHYLASFQDLSSLNKPYYVLCGPFASEQEQTDVLNPLHPLYAHTLVPHDKKGNASILALPLTQKQTTGALKDLSVIAACFDPAHKVVMVQQYQEQPQIWEDAMKAWTKLAFSNHDWKFEDANVLSFIKHSQYSKANQVVSSMEGANVLKALYASIYKSLNRAHTLIEVEDGYITMPMHGHAPDIVGMGIANPYALLMAFCRLLTVAGYEELAQQVENQIESAFYENRDQTTPDQGGVLNTEKYMAMMVECINL | not soluble
MSNVKHSKLLILGSGPAGYTAAVYAARANLKPVLVTGMQQGGQLTTTTEVENWPGDAEGLTGPALMERMKEHAERFDTEIVFDHINSVDLSSRPFRLTGDSQEYTCDALIISTGASAKYLGLESEEAFKGRGVSACATCDGFFYRNQKVAVVGGGNTAVEEALYLSNIASEVHLVHRRDSFRSEKILIDRLMDKVANGNIVLHTHRTLDEVLGDEMGVTGVRLKDTQSDMTENLDVMGVFIAIGHQPNSQIFEGQLEMKNGYIVVKSGLEGNATQTSIEGVFAAGDVMDHNYRQAITSAGTGCMAALDAERYLDSQGK | soluble
SSTAGDGERGTVGQEDSAAARPFRFSPEPTLEDIRRLHAEFAAERDWEQFHQPRNLLLALVGEVGELAELFQWKSDTEPGPQAWPPKERAALQEELSDVLIYLVALAARCHVDLPQAVISKMDTNRQRYPVHLSRGSACKYTDLPRGTISENQAVGAGDPASELRDQAST | soluble
MADNDFLSGEAIMVFKKEILDSHSDFTRSLSHQSASPEAYDQENVFSQDFQPFMKQDKETQNSASQPTSEQSLANRDPCTVPDDLREEMMRQRRKEDAFKTALCDAYKRSQACSYGDQCRFAHGVHELRLPMNPRGRNHPKYKTVLCDKFSMTGNCKYGTRCQFIHKIVDGNAAKLASGAHANTSSKSPARNAAAHNHSLFVPQGSTDRSMDLNQSLPIRQSDLVRAFARATRLDVSGYNSTAQLAQYFESQFQRIQQLSSHHH | not soluble
TVEDSESDMDDAKLDALMGNEGEEEEDDLAEIDTSNIITSGRRTRGKVIDYKKTAEELDKKE | soluble
MIISPLFLKDKSNSEDDASWVSRMMPVDPERGFPLNSHRSWHGGIHIPHTDSGGTPEKIRAIADGTVHSLRQPVGDKKGIPPYNYNGATDCGYVLLKHETEIGSGENAKVVYFSLYMHLASIDAAVKTGEKIYRKDPIGTVGQVDGGNAVHFQIFCDDTNLTKLVGRTTPELDLTKNGRTDAVYGDMYFYLPTGTKFYSHAPANNATTTTEAETYTSTEPLFVSMSFDKGKCTMLTRKKGVFSIGKYSEVGEKLENTDGADYEYNVYAQAKKLYPQSQSAGYELLRFGRVINTDYETLVPADAPLWRTISYPGGKGVVNLALPAVKKFSDGDFPHWTGWQLIDDDTDENSQCNSEQVLCRIGDDMQGLICHLPLEWDASTLEKRLSWLKTTVINESLANQKASHQVDDTGNNASGYAFDNINPDMSVLNAQSTPSFEQAAKDTAMAEADWNALIEHAKALCFDVSGLPVGRVWHFNPISFIAHFRKCGWLDPEKIKSILTSALNKKRNVRKITLIEKASDSNYTFLNLAMRKYNILTPNRQSHFLGQGAVESDSLTAMQEVSQEQVIVNGKQTGGGIVIKSTLNESELGHWYGSEPSELDIYYSGNKYNKNGGLIAGSYSWSNGNCGDVDAQKFRGRGFKMLTGRDKYADYWVYRGWLLKSSFDAYWWDDVKYKSKNLKAMKKRPAIIDDPHKITASPYNCIDSGSFFITCFRRSTVKEIDKDQAESADDSVVTKVTQAINGGDIGLSQRKVMTNNAKGKLNDKY | not soluble
MGSDKIHHHHHHMNNTTENGQYFVAAFEPGAEHPALPTWASCNDNGAELALSAPSTVSKKPLTDVPGAFQLLNVLSADECQRLISVSETMGFLPDAAVSLPRNVRHNDSLTWVVDNTTERLIWDRIAGVMTDDLGIFEGKAALGLNNRFRFYRYNEGDYFKPHSDGSWPGSQVIDGELVRDAFGDRYSQLTFLILLTEDFEGGATRFLVNADKPNLPAKHGDNMRQVDVRTPAGSVLCFPHGMHPLHCIHSSEPIFSGVKYIIRTDVLFEL | not soluble
MKKLVHLSDFHYDGLRLSEEMLAEAIAVSNQVQPDLVLLTGDYVTTTPQPIHQLAKRLQKLQSHAGIYAILGNHDLYQKNSKTEITQALTKAGIQVLWNEIAYPLGEELPIVGIVDYYYREFNPQLLFNQLEPTTPRIVLCHNPDTAAMLQGWRVDLQLSGHTHGGLEHHHHHH | not soluble
MIKKVVNLIMTKERRTFSSEFKLQMVRLYKNGKLKNEIIRKYDLKPSIISNSIKQHQNTGPFNHQDNLKSDEKELIKLRKEVQHLKMEHDVLKQILKLILEHHHHHH | not soluble
MSLKQYLITGGTGMVGSQLVNEIKKSDSHITILTRHDQISNDKKISYVNWAKSGWEHKVPQNIDVVINLAGATLNKRWTPEYKQTLMLSRIQSTQALYELFKSRNKAPKVLFNASATGYYPPDLFMSYTEVYKTLPFDFLSDIVYQWERFAQQFEQLGTRVVIGRFGMILSNEGGALQTMKLPYKYYIGGKLGSGQQWYSWIHINDLIQAILFLINNESASGPFNLTAPIPERQNLFGYTLARAMHKPHETWAPSLAMRLILGQMSTVVLDTQKVLPNKIQALGFQFKYSNLKMALEDLIKEGHHHHHH | soluble
